Among the data in publication PMC8287571 are Kd values, retold here.

For data set [1], the system named is GST:atALKBH9B wt (Arabidopsis thaliana). Put plainly: EMSA. As to conditions: EMSA: 5 ng RNA in 10 ul Union Buffer (100 mM Tris-HCl pH 8.0, 1 M NaCl, 8 U RiboLock (so in the source)), 30 min at 4 C, 1.2% agarose; northwestern: 10 mM Tris-HCl pH …. In general terms: In EMSA bound probe runs differently from free probe, usually more slowly.
Data set [2] concerns GST:RBD (Arabidopsis thaliana). Put plainly: EMSA. As to conditions: EMSA: 5 ng RNA in 10 ul Union Buffer (100 mM Tris-HCl pH 8.0, 1 M NaCl, 8 U RiboLock (so in the source)), 30 min at 4 C, 1.2% agarose; northwestern: 10 mM Tris-HCl pH ….

pKd: −log10 of the molar value.

As to 3'UTR transcript of AMV RNA3/4, the pKd in data set [1] is 6.52; in data set [2], 6.19.

One may read the pKd as the Kd on a negative log10 scale, so that one unit is a factor of ten. A higher pKd goes with a low Kd.
